Results: paper PMC4775424 (Structure (London, England : 1993), 2016)
“Also recorded” adds a separate entry of the source.

Assays:
[1] = test system: human ORC1 BAH domain; conditions: human version; ref Kuo et al., 2012; cited from earlier work
[2] = test system: mouse ORC1 BAH domain; conditions: mouse version; four-residue aromatic cage; ref Kuo et al., 2012; cited from earlier work
[3] = target: H3 peptide dimethylated at K4; assay: ITC
[4] = target: unmodified H3(1-15) peptide; assay: ITC
[5] = target: H3 peptide monomethylated at K4; assay: ITC

Molecule | recognition by ORC1 BAH domain [1] | recognition by ORC1 BAH domain [2] | fold decrease of the binding against the unmodified H3 peptide [3] [fold] | Kd [4] [nM] | fold decrease of the binding against the unmodified H3 peptide [5] [fold]
H4K20me2: histone mark H4K20me2 / H4K20me2 peptide bound by metazoan ORC1 BAH domains | specifically recognize | can use a four-residue aromatic cage to recognize the methyllysine of H4K20me2; also recorded: specifically recognize | – | – | –
Arabidopsis thaliana ORC1b BAH-PHD cassette (domain or fragment) SETIKKTKKKKRVYYNKVEFDETEFEIGDDVYVKRREDSNSDEEEDPEIEDCQICFKSDTNIMIECDDCLGGFHLKCLKPPLKEVPEGDWICQFCEVKKSGQSQTLDLPKPPEGKKLARTMREKLLSGDLWAARIDKLWKEVDDGVYWIRARWYMIPEETVSGRQPHNLKRELYLTNDFADIEMECILRHCSVKCPKEFSKASNDGDDVFLCEYEYDVHWRSFKRLAELADG | – | – | 10 | 3000 | 4
